In publication doi:10.1101/2022.02.17.480751 (bioRxiv, 2022):

B1: REGN10933 (recombinant human IgG1/kappa) (antibody, V domains shown)
VH: QVQLVESGGGLVKPGGSLRLSCAASGFTFSDYYMSWIRQAPGKGLEWVSYITYSGSTIYYADSVKGRFTISRDNAKSSLYLQMNSLRAEDTAVYYCARDRGTTMVPFDYWGQGTLVTVSS
VL: DIQMTQSPSSLSASVGDRVTITCQASQDITNYLNWYQQKPGKAPKLLIYAASNLETGVPSRFSGSGSGTDFTFTISGLQPEDIATYYCQQYDNLPLTFGGGTKVEIK
B2: 87G7 human monoclonal antibody (recombinant human IgG1/kappa) (antibody, V domains shown)
VH: EVQLLESGGGLVQPGGSLRLSCVASGFTFSSYVMSWVRQAPGKGLEWVAAISGSGGNTYYADSVKGRFTISRDNSKNTLYLQMNSLRAEDTAVYYCAKEGTYYYGSGSFWGQGTLVTVSS
VL: EIVLTQSPATLSLSPGERATLSCRASQSFHNYLAWYQQKPGRAPRLLIFDASNRATGIPARFSGSGSGTDFTLTISSLEPEDFAVYYCQQRFNWPLTFGGGTKVEIK
B3: REGN10987 (recombinant human IgG1/kappa) (antibody, V domains shown)
VH: QVQLVESGGGVVQPGRSLRLSCAASGFTFSNYAMYWVRQAPGKGLEWVAVISYDGSNKYYADSVKGRFTISRDNSKNTLYLQMNSLRTEDTAVYYCASGSDYGDYLLVYWGQGTLVTVSS
VL: QSALTQPASVSGSPGQSITISCTGTSSDVGGYNYVSWYQQHPGKAPKLMIYDVSKRPSGVSNRFSGSKSGNTASLTISGLQSEDEADYYCNSLTSISTWVFGGGTKLTVL

Key:
[1] = target: SARS-CoV-2 S1 (residues 1-682, Wuhan-Hu-1), Strep-tagged (SARS-CoV-2, Wuhan-Hu-1, UniProt P0DTC2); assay: ELISA
[2] = target: SARS-CoV-2 S receptor-binding domain (RBD, residues 329-538, Wuhan-Hu-1), Strep-tagged (SARS-CoV-2, Wuhan-Hu-1, UniProt P0DTC2); assay: ELISA

Binder	binding result [1]	binding result [2]
B1	binds	–
B2	binds	binds
B3	binds	–
